Source: US20130244255A1, “ANTIBODIES DIRECTED TO GPNMB AND USES THEREOF” (priority 2006, published 2013)

How the values were obtained:
GPNMB [1] = target: T1, GPNMB (Homo sapiens, UniProt Q14956); experiment: BiaCore 2000 analysis of hybridoma supernatants binding to GPNMB
T1 construct: we cloned the human CG56972 extracellular domain (ECD; aa 23-480); made in house; host or cells: HEK 293 cells
T1 sequence (Q14956 23-492): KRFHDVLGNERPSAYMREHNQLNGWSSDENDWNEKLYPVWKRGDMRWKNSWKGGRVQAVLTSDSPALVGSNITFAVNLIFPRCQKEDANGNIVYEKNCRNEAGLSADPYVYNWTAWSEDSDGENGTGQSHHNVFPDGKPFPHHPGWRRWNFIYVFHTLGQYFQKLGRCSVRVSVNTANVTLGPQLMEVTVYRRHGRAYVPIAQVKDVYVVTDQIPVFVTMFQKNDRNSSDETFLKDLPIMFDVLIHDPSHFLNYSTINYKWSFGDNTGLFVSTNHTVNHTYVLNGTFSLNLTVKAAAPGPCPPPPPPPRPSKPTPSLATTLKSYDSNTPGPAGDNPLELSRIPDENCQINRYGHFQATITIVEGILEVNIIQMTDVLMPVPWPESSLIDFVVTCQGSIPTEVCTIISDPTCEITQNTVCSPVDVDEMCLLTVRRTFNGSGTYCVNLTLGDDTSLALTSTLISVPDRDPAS
Procedure: Certain Hybridoma cell supernatants (29) were analyzed for binding to GPNMB by BiaCore® 2000 biosensor equipped with a research-grade CM5 sensor chip. A 1:25 dilution of cell supernatant was passed over a protein A surface for 5 min followed by washing the surface for 10 mins. Subsequently, GPNMB was injected for 90 sec. over the surface at a concentration of 880 nM followed by dissociation. Double-referenced binding data were obtained by subtracting the signal from a control flow cell and subtracting the baseline drift of a buffer injected just prior to the antigen injection. GPNMB binding data for each mAb was normalized for the amount of mAb captured on each surface. Normalized, drift corrected responses were also measured. The sensorgrams were fit to a simple 1:1 kinetic model.

GPNMB [2] = target: T1, GPNMB; experiment: ELISA of hybridoma supernatants for binding to GPNMB
Procedure: After 14 days of culture, hybridoma supernatants were screened for GPNMB specific monoclonal antibodies. In the Primary screen, the ELISA plates (Fisher, Cat. No. 12-565-136) were coated with 50 μL/well of GPNMB (1 μg/mL) in Coating Buffer (0.1 M Carbonate Buffer, pH 9.6, NaHCO3 8.4 g/L), then incubated at 4° C. overnight. After incubation, the plates were washed with Washing Buffer (0.05% Tween 20 in PBS) three times. 200 μL/well Blocking Buffer (0.5% BSA, 0.1% Tween 20, 0.01% Thimerosal in 1×PBS) were added and the plates were incubated at room temperature for 1 h. After incubation, the plates were washed with Washing Buffer three times. Aliquots (50 μL/well) of hybridoma supernatants and positive and negative controls were added, and the plates were incubated at room temperature for 2 h. The positive control used throughout was serum from the relevant GPNMB immunized XenoMouse® mouse and the negative control was serum from the KLH-immunized relevant strain of XenoMouse® mouse. After incubation, the plates were washed three times with Washing Buffer. 100 μL/well of detection antibody goat anti-huIgGfc-HRP (Caltag, Cat. No. H10507, using concentration was 1:2000 dilution) was added and the plates were incubated at room temperature for 1 hour. After incubation, the plates were washed three times with Washing Buffer. 100 μl/well of TMB (BioFX Lab. Cat. No. TMSK-0100-01) was added, and the plates were allowed to develop for about 10 minutes (until negative control wells barely started to show color). 50 μl/well stop solution (TMB Stop Solution (BioFX Lab. Cat. No. STPR-0100-01) was then added and the plates were read on an ELISA plate reader at a wavelength of 450 nm.
Hybridoma supernatants were screened for binding to GPNMB by ELISA as described above in Example 2.

[3] = system: SK-MEL-5 human melanoma xenograft; experiment: SK-MEL-5 human melanoma xenograft in athymic mice; type: in vivo
Procedure: The tumor inhibitory activity of the CR011-MMAE immunoconjugate was measured in an anti-tumor xenograft model using athymic mice, according to published methods (see Geran et al., Cancer Chemother. Rep. 3:1-104 (1972)). […] When tumors became established (10-20 days), the animals were pair-matched into groups (n=6 mice/group), and treatment was administered by intravenous injection (tail vein).
The SK-MEL-2 human melanoma (ATCC #HTB-68) was derived from a metastatic site (skin of thigh) of a person with malignant melanoma, and the SK− MEL-5 human melanoma (ATCC #HTB-70) was derived from a metastatic site (axillary lymph node) of a person with malignant melanoma (see Fogh et al., J. Natl. Cancer Inst. 59: 221-226 (1977)). Both cell lines were obtained from the American Type Culture Collection.
The effects of treatment were monitored by repetitive tumor measurements across 2 diameters with Vernier calipers; tumor size (in mg) was calculated using a standard formula, (W^2×L)/2, assuming a specific gravity of 1.0. Tumor size and body weights were assessed twice weekly. Mice were examined daily, however, and moribund animals were humanely euthanized if clinical indications of excessive pain or distress were noted (i.e., prostration, hunched posture, paralysis/paresis, distended abdomen, ulcerations, abscesses, seizures, and/or hemorrhages) Animals with tumors exceeding 2,000 mg were removed from the study and euthanized humanely.
Soon after the commencement of treatment with paclitaxel, however, significant tumor growth inhibition was observed (P≦0.039) at day 3 after treatment began, and this anti-tumor effect continued, producing 100% growth inhibition (stasis). The responses of SK-MEL-5-bearing test animals to vinblastine and paclitaxel were short-lived. After cessation of treatment at the maximally tolerated doses, tumors resumed rapid, progressive growth.

[4] = mAb captured on protein A, GPNMB at 880 nM, 1:1 kinetic model

Substance | binding to GPNMB (in words) (GPNMB [1]; BiaCore, 1:25 dilution of cell supernatant) | Kd (GPNMB [1]; [4]) [nM] | ka (GPNMB [1]; [4]) [M⁻¹ s⁻¹] | kd (GPNMB [1]; [4]) [s⁻¹] | Avg OD (GPNMB [2]; antibody at 12.3 ng/mL) | Avg OD (GPNMB [2]; antibody at 37 ng/mL) | Avg OD (GPNMB [2]; antibody at 111 ng/mL) | Avg OD (GPNMB [2]; antibody at 333 ng/mL) | Avg OD (GPNMB [2]; antibody at 1 μg/mL) | Avg OD (GPNMB [2]; antibody at 3 μg/mL) | earliest significant anti-tumor effects, time after treatment began ([3]; 10 mg/kg/treatment, compared to PBS-treated controls (P=0.039)) [days] | doses at which complete regressions occurred ([3]; i.v., q4d×4) [mg/kg] | anti-tumor effect (in words) ([3]; i.v., CR011-vcMMAE 1.25 to 20 mg/kg q4d×4, vinblastine […] q4d×4) | toxicity (mortality, body weight or weight gain) ([3]; mouse, in vivo)
CR011: fully human monoclonal antibody that specifically binds to GPNMB; VH SEQ ID NO: 20, VL SEQ ID NO: 29 | strong binding | 52 | 16524 | 0.000855 | 0.168 | 0.381 | 0.701 | 0.902 | 1.051 | 1.159 |  |  |  | 
CR011-vcMMAE: CR011 conjugated to monomethyl auristatin E through a protease cleavable valine-citrulline linker; approx. 4 drugs per antibody |  |  |  |  |  |  |  |  |  |  | 10 | ≥ 2.5 | Substantial tumor growth inhibition, as well as tumor growth delay and complete regressions | no indication of toxicity
